Test results: patent US20110110981A1

Target: purified IgG1
Experiment: ELISA on dilutions of purified isotype standards

## anti-mouse IgG1 secondary antibody (tool reagent)
  greater affinity than the IgG2a antibody pair: 40%
